Assay results reported in article PMC7933155, “IL-23p19 and CD5 antigen-like form a possible novel heterodimeric cytokine and contribute to experimental autoimmune encephalomyelitis development” (Scientific Reports, 2021).

Target: the molecule itself
Assay: non-reducing SDS-PAGE and western blot; culture supernatants of HEK293T cells transfected with a p19 expression vector, western blot under non-reducing conditions

B1: mouse IL-23 p19 from HEK293T cells transfected with a p19 expression vector (vector not named) (natural protein, UniProt Q9EQ14 22-196, looked up)
chain: VPRSSSPDWAQCQQLSRNLCMLAWNAHAPAGHMNLLREEEDEETKNNVPRIQCEDGCDPQGLKDNSQFCLQRIRQGLAFYKHLLDSDIFKGEPALLPDSPMEQLHTSLLGLSQLLQPEDHPRETQQMPSLSSSQQWQRPLLRSKILRSLQAFLAIAARVFAHGAATLTEPLVPTA
notes: Interleukin-23 subunit alpha (p19), mouse; source: HEK293T, transfected, in culture supernatant
stoichiometry N: 2
